These results are taken from patent publication EP4786489A1, “IL-22 MUTANT, PREPARATION METHOD THEREFOR, AND USE THEREOF” (Nanjing Novoacine Biotechnology Co., Ltd., priority 2023, dated 2025).

In general, Cmax refers to the peak of the concentration-time curve. The MRT is a mean duration of stay, worked out from the concentration-time curve.

The test system of one data set is STAT3. Kind of data set: STAT3 phosphorylation in HaCaT cells by FACS (tissue activation preference). To be noted: STAT3 activation in HT29 vs HaCaT cells. It counts as cell-based, Human. As for the experimental part:
Human immortalized keratinocyte HaCaT cells were recovered and cultured in MEM/EBSS medium (Cytiva, SH30024.01) supplemented with 15% FBS and 1% P/S (Cytiva, SV30010). When cell confluence reached 70%-80%, cells were digested with 0.25% Trypsin-EDTA (Gibco, 25200-056), terminated with complete medium, and resuspended to […]. After mixed thoroughly, a total of 120 µL per well cells was seeded into a 96-well plate (Corning, 3599) at a density of 1.5 × 10^5 cells per well and incubated overnight at 37°C with 5% CO2.
wt IL-22 was prepared at an initial working concentration of 1000 nM, and the remaining samples were prepared at 10000 nM as the starting concentration. […] After staining at room temperature in the dark for 1 hour, cells were washed twice with 1× PBS and analyzed by flow cytometry to determine the mean fluorescence intensity (MFI).
Tissue activation preference of different test candidates was evaluated by comparing their ability to activate STAT3 in intestinal-derived HT29 cells and skin-derived HaCaT cells. […] The activity of PEGylated IL-22 mutants in activating STAT3 phosphorylation in HaCaT cells at different concentrations as determined by FACS is shown in Figure 8. […] Tissue preference of PEG-IL22 mutants for STAT3 phosphorylation in human intestinal and human skin cell lines determined by FACS
(In flow cytometry, cells or beads pass a laser one at a time.)

The nature of data set [1]: Mouse PK, plasma concentration by ELISA. To be noted: single s.c. 1 mg/kg, male Balb/C mice. It counts as in vivo. On the procedure: Male Balb/C mice (n = 4 per group) were administered a single subcutaneous injection at a dose of 1 mg/kg. Blood samples were collected before dosing and at 4 (no samples were collected at this time point for 60k-PEG-IL22-D109C and 60k-PEG-IL22-P120C), 8, 24, […], 48, 72, 96, and 120 hours after dosing. Anticoagulated blood was used to prepare plasma.
The concentrations of each test candidate in plasma were quantified by ELISA. Anti-IL22 Antibody (Sino Biological, 13059-MM24), diluted in PBS to 2 µg/mL, was used for coating. Standard curves of each test candidate and plasma samples were diluted to fall within the linear range of detection. Recombinant Anti-IL22 Antibody (Sino Biological, 13059-R034-H) was used for detection. The original concentration of each test candidate in the samples was calculated using a four-parameter fit of the standard curve for each test candidate. Pharmacokinetic parameters of each test candidate in mouse plasma were analyzed (Figure 12). Table 13. Dosing information for the mouse PK study
A general note: An ELISA detects its analyte on a solid surface through an enzyme-linked reagent.

The next data set relates to SAA. Put plainly: Mouse PD preference study: plasma SAA. It counts as in vivo, mice. To be noted: at equivalent or superior Reg3β Cmax: 60K-PEG-IL22-D109C 0.1 mg/kg vs 60K-PEG-IL22-P120C 0.3 mg/kg vs IL-22-Fc 1 mg/kg, s.c. As for the experimental part:
Based on the in vitro preference results and preliminary PD screening results, the molecules 60k-PEG-IL22-D109C and 60k-PEG-IL22-P120C were selected. PD testing was performed in three mice per dose group at different dose levels according to the method described in Example 14, including the pharmacodynamic-related molecule Reg3β and the inflammation-related molecule SAA. The control was IL-22-Fc. Blood samples were collected before dosing and at 4, 24, 48, 72, 96, 144, 192, 264, and 336 hours after dosing. Plasma was separated using anticoagulated blood samples. For the control molecules wt IL-22 and hB3-his, samples were collected only up to 96 hours.
The detection method for SAA was as follows: a kit containing detecting antibody pairs and positive controls (Abcam, Ab216059) was used to detect SAA concentrations in appropriately diluted plasma samples. The assay was performed according to the manufacturer's instructions. Sa-HRP (Pierce 21126) was used for conjugation. After washing, tetramethylbenzidine peroxidase substrate (TMB, Surmodics, TMBS-1000-01) was added for color development for 10 minutes. The reaction was terminated with 2 M sulfuric acid, and the plate was read at 450 nm with 630 nm as the reference using a microplate reader. SAA was measured before dosing and at 24, 48, 72, 96, and 144 hours after dosing. The original SAA concentration in each sample was calculated. […]

The test system of the next data set is Reg3β. Put plainly: Mouse PD: plasma Reg3β after single administration (ELISA). It counts as in vivo. Set-up: Reg3βCmax: unit not given here. The note with it: for Reg3βCmax: mouse plasma, wt IL-22 i.p. On the procedure: The ELISA method was used to determine the baseline levels and post-dose changes of the biomarker Reg3β in plasma samples before and after administration of different test candidates.
For the preferable test candidates, one mouse per dose group was subcutaneously injected at 0.5, 1, or 3 mg/kg. The control molecules were IL-22-Fc, administered subcutaneously at 0.3 and 1 mg/kg, and wt IL-22, administered intraperitoneally at the corresponding doses.
Approximately 40 µL of orbital blood was collected with anticoagulation on the day before dosing and at 4, 24, 48, 96, 144, 192, 264, 336, and 408 hours after dosing, followed by plasma separation. ELISA plates were coated overnight at 4°C with 1 µg/mL anti-Reg3β (Sino Biological, 51153-R065) dissolved in PBS. Mouse Reg3β (Sino Biological, 51153-M08H) was serially diluted to generate a positive control standard curve. Plasma samples were appropriately diluted to fall within the linear range of the standard curve. After blocking, samples were added and incubated for 2 hours. Incubation was then performed with the secondary antibody sheep anti-mouse Reg3β (R&D Systems, AF5110-SP) and HRP-conjugated antibody (HRP-Rabbit anti-sheep IgG H&L, Abcam, Ab97130). After final washing, tetramethylbenzidine peroxidase substrate (TMB, Surmodics, TMBS-1000-01) was added for color development for 10 minutes. The reaction was terminated with 2 M sulfuric acid, and absorbance was read at 450 nm with 630 nm as reference using a microplate reader. The original concentrations of Reg3β in each sample were calculated. Concentration versus time curves were plotted (Figure 9).

B1: 60K-PEG-IL22-D109C: IL-22 cysteine mutant, conjugation site 76, PEG-maleimide 60kD (conjugate)
chain: APISSHCRLDKSNFQQPYITNRTFMLAKEASLADNNTDVRLIGEKLFHGVSMSERCYLMKQVLNFTLEEVLFPQSCRFQPYMQEVVPFLARLSNRLSTCHIEGDDLHIQRNVQKLKDTVKKLGESGEIKAIGELDLLFMSLRNACI
Consider B1, for which, in the data set on STAT3, the “tissue preference compared with IL-22-Fc” value is “superior tissue preference”. Besides, in data set [1], the “AUClast” value was 301.5835 µg·h/mL, the “Cmax” value is 5460.625 ng/mL, the mean residence time (MRT) is reported as 41.39 h and the “T1/2” value stood at 21.6 h. Besides, the “SAA Cmax compared with IL-22-Fc” value in the data set with SAA is given as “significantly lower”. The “Normalized Cmax ratio of Reg3β (relative to IL-22-Fc)” value in the data set on Reg3β (0.5mg/kg single dose vs IL-22-Fc 0.3 mg/kg) came to 329%. Besides, the Reg3βCmax in the data set with Reg3β (0.5mg/kg single dose, test candidates s.c., one mouse per dose group) is given as 52.0. Also, the “Normalized Cmax ratio of Reg3β (relative to IL-22-Fc)” value in the data set with Reg3β (1mg/kg single dose) is 251%. Further, in the data set on Reg3β (1mg/kg single dose, s.c.), the Reg3βCmax came out at 82.9. This molecule displayed a Reg3βCmax in the data set on Reg3β (3mg/kg single dose, s.c.) of 73.4. For the same molecule, the “peak concentrations of Reg3β stimulation compared with IL-22-Fc” value in the data set with Reg3β (similar (0.5 mg/kg vs. 0.3 mg/kg) or identical (1 mg/kg) doses) is on record as “higher peak concentrations”.
